According to the RNAGym collection of RNA variant scans (doi:10.7554/elife.80360):

B1: CPEB3 Ribozyme (parent)
chain: GGGGGCCACAGCAGAAGCGUUCACGUCGCGGCCCCUGUCAGAUUCUGGUGAAUCUGCGAAUUCUGCUGU

Variants of: B1
Assay: self-cleavage, relative activity (ratio to wild type); higher = more cleavage; co-transcriptional
GGGGGCCACAGCAGAAGCGUUCCCGUCGCGACCCCUGUCAGAUUCUGGUGAAUCUGCGAAUUCUGCUGU showed a self-cleavage of 0.86.
GGGGGCCACAGCAGAAGCGUUCCCGUCGCGGCCCCUGUCAGAUUCUCGUGAAUCUGCGAAUUCUGCUGU gave a self-cleavage of 0.961.
Work on GGGGGCCACAGCAGAAGCGUUCCCGUCGCGGCCCCUGUCAGAUUCUAGUGAAUCUGCGAAUUCUGCUGU yielded a self-cleavage of 0.924.
In the case of GGGGGCCACAGCAGAAGCGUUGACGUCGCGGCCCCUGUCAGAUUCGGGUGAAUCUGCGAAUUCUGCUGU, the self-cleavage is reported as 0.178.
Variant GGGGGCCACAGCAGAAGCGUUUACGUCGCGGCCCCUGUCAGAUUCUGGUGAAUCUGCGAAUUCUGUUGU has a self-cleavage of 0.33.
For GGGGGCCACAGCAGAAGCGUUUCCGUCGCGGCCCCUGUCAGAUUCUGGUGAAUCUGCGAAUUCUGCUGU, the self-cleavage was 0.276.
Work on GGGGGCCACAGCAGAAGCGUUUACGUCGCGGCCCCUGUCAGAUUCUGGUGAAUCUGCGAAUUCUGCUUU yielded a self-cleavage of 0.51.
For GGGGGCCACAGCAGAAGCGUUUACGUCGCGGCCCCUGUCAGAUUCUGGUGAUUCUGCGAAUUCUGCUGU, the self-cleavage was 0.315.
In the case of GGGGGCCACAGCAGAAGCGUUCCCGUCGCGGCCCCUGUCAGAUUCUGGUGAAUAUGCGAAUUCUGCUGU, the self-cleavage is reported as 0.849.
Work on GGGGGCCACAGCAGAAGCGUUUACGUCGCGGCCCCUGUCAGACUCUGGUGAAUCUGCGAAUUCUGCUGU yielded a self-cleavage of 0.295.
For GGGGGCCACAGCAGAAGCGUUCCCGUGGCGGCCCCUGUCAGAUUCUGGUGAAUCUGCGAAUUCUGCUGU, the self-cleavage was 0.228.
In the case of GGGGGCCACAGCAGAAGCGUUUACGUCGCGGCCCCUGUCAGAUUCUGGUGAAUCUGCGAAAUCUGCUGU, the self-cleavage is reported as 0.18.
With GGGGGCCACAGCAGAAGCGUUCCCGUCGCGGCCCCUGUUAGAUUCUGGUGAAUCUGCGAAUUCUGCUGU the self-cleavage was 0.796.
Work on GGGGGCCACAGCAGAAGCGUUGACGUCGCGGCCCCUGUCAGAUUCUGGUGAAUCUGCGAAAUCUGCUGU yielded a self-cleavage of 0.181.
GGGGGCCACAGCAGAAGCGUUGACGACGCGGCCCCUGUCAGAUUCUGGUGAAUCUGCGAAUUCUGCUGU showed a self-cleavage of 0.144.
GGGGGCCACAGCAGAAGCGUUGACGCCGCGGCCCCUGUCAGAUUCUGGUGAAUCUGCGAAUUCUGCUGU showed a self-cleavage of 0.209.
With GGGGGCCACAGCAGAAGCGUUUACGUCGCGGCCCCUGUCGGAUUCUGGUGAAUCUGCGAAUUCUGCUGU the self-cleavage was 0.266.
With GGGGGCCACAGCAGAAGCGUUUACGUCGCGGCCCCUGUCUGAUUCUGGUGAAUCUGCGAAUUCUGCUGU the self-cleavage was 0.184.
For GGGGGCCACAGCAGAAGCGUUUACGUCGCGGCCCCUGUCCGAUUCUGGUGAAUCUGCGAAUUCUGCUGU, the self-cleavage was 0.165.
Work on GGGGGCCACAGCAGAAGCGUUUACGUCCCGGCCCCUGUCAGAUUCUGGUGAAUCUGCGAAUUCUGCUGU yielded a self-cleavage of 0.126.
In the case of GGGGGCCACAGCAGAAGCGUUUACGUCGCGGCCCCUGUCAGAUUCUGGUGAAUCUGCGAAUUCGGCUGU, the self-cleavage is reported as 0.237.
In the case of GGGGGCCACAGCAGAAGCGUUUACGUCGCGGCCCCUGUCAGAUUCUGGUGAAUCUGCGAAUUCCGCUGU, the self-cleavage is reported as 0.279.
GGGGGCCACAGCAGAAGCGUUUACGUCGCGGCCCCUUUCAGAUUCUGGUGAAUCUGCGAAUUCUGCUGU gave a self-cleavage of 0.181.
GGGGGCCACAGCAGAAGCGUUCCCGUCGCGGCCCCUGUCAGAUUCUGGUGAAUCUGCGAAUUUUGCUGU showed a self-cleavage of 0.969.
For GGGGGCCACAGCAGAAGCGUUUACGUCGCGGCCCCUGUCAGAUUCUGGUGAAUCUGGGAAUUCUGCUGU, the self-cleavage was 0.144.
In the case of GGGGGCCACAGCAGAAGCGUUUACGUCGCGGCCCCUGUCAGAUUCUGGUGAAUCUGUGAAUUCUGCUGU, the self-cleavage is reported as 0.192.
In the case of GGGGGCCACAGCAGAAGCGUUCCCGUCGCGGUCCCUGUCAGAUUCUGGUGAAUCUGCGAAUUCUGCUGU, the self-cleavage is reported as 0.85.
For GGGGGCCACAGCAGAAGCGUUUACGUCGCGGCCCCUGUUAGAUUCUGGUGAAUCUGCGAAUUCUGCUGU, the self-cleavage was 0.179.
Variant GGGGGCCACAGCAGAAGCGUUCCCGUCGCGGCACCUGUCAGAUUCUGGUGAAUCUGCGAAUUCUGCUGU has a self-cleavage of 0.746.
Variant GGGGGCCACAGCAGAAGCGUUUACGUCGCGGCCCGUGUCAGAUUCUGGUGAAUCUGCGAAUUCUGCUGU has a self-cleavage of 0.165.
With GGGGGCCACAGCAGAAGCGUUGACGUCGCGGCCCCUGUCAGAUUCUGGAGAAUCUGCGAAUUCUGCUGU the self-cleavage was 0.172.
With GGGGGCCACAGCAGAAGCGUUUACGUCGCGGCCCCUGUCAGAUUCUGGUGAAUCUGCGAAUUCUGCGGU the self-cleavage was 0.332.
In the case of GGGGGCCACAGCAGAAGCGUUUACGUCGCGGCCCCUGUCAGAUUCUGGUGAAUCUGCGAAUUCUGCCGU, the self-cleavage is reported as 0.365.
Work on GGGGGCCACAGCAGAAGCGUUCCCGUCGGGGCCCCUGUCAGAUUCUGGUGAAUCUGCGAAUUCUGCUGU yielded a self-cleavage of 0.485.
Work on GGGGGCCACAGCAGAAGCGUUUACGUCGCGGCCCCUGUCAGAUUCUGGUGUAUCUGCGAAUUCUGCUGU yielded a self-cleavage of 0.295.
For GGGGGCCACAGCAGAAGCGUUCCCGUCGCGGCCCCUGUCAGAUUCUGGUGAAUCUGCGAAUUCUGGUGU, the self-cleavage was 0.81.
GGGGGCCACAGCAGAAGCGUUCCCGUCGCUGCCCCUGUCAGAUUCUGGUGAAUCUGCGAAUUCUGCUGU showed a self-cleavage of 0.317.
GGGGGCCACAGCAGAAGCGUUGACGUCGCGGCCCCUGUCAGAUUCUGGUGAAUCUGCGAAUUCUGCUAU showed a self-cleavage of 0.267.
In the case of GGGGGCCACAGCAGAAGCGUUGACGUCGCGGCCCCUGUCAGAUUCUGGUGAAUCUGCGAAUUCUGCUCU, the self-cleavage is reported as 0.156.
